Publication PMC6327262

Substrate: O=[N+]([O-])c1ccc(O[C@@H]2O[C@H](CO)[C@@H](O)[C@H](O)[C@H]2O)cc1
Assay: purified protein
Settings: 25 mM sodium phosphate pH 6.0, 45 °C, 1 μg/mL enzyme, 0.1-5.0 mM substrate, no inhibitor

B1: rBGLa (Limosilactobacillus antri DSM 16041) (protein)
chain: MVKIDLQFVQGLTLEERAALVSGKDFWFTAKVPGVDRMMMSDGPSGLRKQDIDVAPTDVNNSVDAVCFPSSALTASSFDDQLLFKLGHHLGVAASAEKLGVLLGPGVNIKRSPLAGRNFEYFSEDPLLAGRMGTAYVKGVQEEGVGVSVKHFAANNRENQRFTSSSNIDERALREIYLAQFERIVKEAQPATLMCSYNRLNGTLNSQNQRLLTEILRNEWGFQGLVMSDWGAVADHVAAIKAGLDLEMPGKDQASVDEIVQAVKEGRLQESTLNRSALRVLQMVEKWGKDVSRTESYDKEEQHEFARQVADDSIVLLKNDNQELPLHTGGSLAVIGELAAKPRFEGGGSSHVNAHHLVTPLAAAPTNAKYAVGYSLTETAPNEELTKEAVQLAKQSDQVVFFAGFPERMETEGFDKDSIALPANQNALLREVLKVNPHVTVVLQNGSVVEMPWADGVPAIVETYLAGEAVGEATWDILTGKVNPSGKLSESFPLRLQDNPTYGTFARDHDEEDYHEGIFVGYRYYDLHEMPVRFPFGHGLSYTDFTYSDLTVSEEDNDVKVRFTVTNSGQVAGKEVAQVYVANHVSRVEMPVKELRDFTKLALAPGESKTVTLTLPRRAFSYYNVAQEQWEADNGEYEIMVGSSSRDIRLRTTFTLTIGVNPVGEITGDTYIGDIWNDQDPKVQAALKSSGLYEVLQPMMADKDWVAISANMPLRSLAATGIQEEVRDAFLRALK
Q: B1 was tested. Which Km did it give?
A: Its Km is 1840 ± 70 µM.

Q: And the kcat?
A: Its kcat is 407 s⁻¹.

Q: What about the kcat/Km of the same protein?
A: The kcat/Km was 221000 M⁻¹ s⁻¹.
